What was measured:
[1] = test system: ALK-positive NSCLC; settings: monotherapy; phase 2 study, subgroups with prior ALK TKI treatment; cited from earlier work
[2] = Pharmacokinetics from blood samples; type: in vivo, human; settings: serum, in combination with lorlatinib or crizotinib

Compound | Median PFS [1] | Ctrough level at steady state ([2]; at cycle 2) | Cmax on cycle 1 day 1 versus cycle 2 day 1 [2]
C[C@H]1Oc2cc(cnc2N)-c2c(nn(C)c2C#N)CN(C)C(=O)c2ccc(F)cc21 [Lorlatinib, lorlatinib] | 6.9–7.3 mo |  | 
avelumab |  | above 10 μg/mL | similar

Reference: PMC11260014 (JTO Clinical and Research Reports, 2024)
